Our source for the MIC values is US20190175467A1, “COMPOSITION FOR THE TREATMENT OF ACNE” (ROTTAPHARM LTD., priority 2015, published 2019).

Where only a bound is given, the exact number is not on record here.

The test system of assay [1] is Staphylococcus aureus ATCC 25923. Nature of the assay: Determination of MIC and MBC, Staphylococcus aureus. The format is cell-based. As to the method:
(§1) A series of test tubes was prepared containing the culture broth inoculated with the test micro-organism and the substance to be tested was introduced at decreasing scalar concentrations. […] The test tubes in which the microbial population developed were then determined by observing visually the turbidity that is indicative of growth. Test tubes in which the substance is present at a sufficient concentration to inhibit growth remain clear. When the nature itself of the sample prevents visual reading or if it is wished to determine whether the lack of development is due to a microbiostatic or microbicidal action, transfers are made to appropriate agar media for confirmation. The concentration of sample at which growth of the micro-organisms is inhibited is considered to be the Minimum Inhibitory Concentration (MIC), while that at which viable micro-organisms are no longer present is considered to be the Minimum Bactericidal Concentration (MBC) The antibacterial activity of these substances against Staphylococcus aureus acnes ATCC 25923 and Staphylococcus epidermidis ATCC 12228 was tested according to the above-described method.

Assay [2] concerns Staphylococcus epidermidis ATCC 12228. Put plainly: Determination of MIC and MBC, Staphylococcus epidermidis. The format is cell-based. As to the method:
as §1

B1: Lactoferrin (protein, UniProt P02788 20-710, looked up)
Lactotransferrin: GRRRSVQWCAVSQPEATKCFQWQRNMRKVRGPPVSCIKRDSPIQCIQAIAENRADAVTLDGGFIYEAGLAPYKLRPVAAEVYGTERQPRTHYYAVAVVKKGGSFQLNELQGLKSCHTGLRRTAGWNVPIGTLRPFLNWTGPPEPIEAAVARFFSASCVPGADKGQFPNLCRLCAGTGENKCAFSSQEPYFSYSGAFKCLRDGAGDVAFIRESTVFEDLSDEAERDEYELLCPDNTRKPVDKFKDCHLARVPSHAVVARSVNGKEDAIWNLLRQAQEKFGKDKSPKFQLFGSPSGQKDLLFKDSAIGFSRVPPRIDSGLYLGSGYFTAIQNLRKSEEEVAARRARVVWCAVGEQELRKCNQWSGLSEGSVTCSSASTTEDCIALVLKGEADAMSLDGGYVYTAGKCGLVPVLAENYKSQQSSDPDPNCVDRPVEGYLAVAVVRRSDTSLTWNSVKGKKSCHTAVDRTAGWNIPMGLLFNQTGSCKFDEYFSQSCAPGSDPRSNLCALCIGDEQGENKCVPNSNERYYGYTGAFRCLAENAGDVAFVKDVTVLQNTDGNNNEAWAKDLKLADFALLCLDGKRKPVTEARSCHLAMAPNHAVVSRMDKVERLKQVLLHQQAKFGRNGSDCPDKFCLFQSETKNLLFNDNTECLARLHGKTTYEKYLGPQYVAGITNLKKCSTSPLLEACEFLRK
On to B1, for which the MIC in assay [1] and in assay [2] was over 20 mg/mL each time.
